Consider 25 molecules from patent US20250171512A1.

The target in this assay is human FGFR1c together with human beta-Klotho (KLB), stably expressed on CHO Flp-In cells (human), P11362. Description: cell-based or functional assay.
human FGFR1c together with human beta-Klotho (KLB), stably expressed on CHO Flp-In cells (human), P11362, sequence (P11362 22-822, chain 1 of 2): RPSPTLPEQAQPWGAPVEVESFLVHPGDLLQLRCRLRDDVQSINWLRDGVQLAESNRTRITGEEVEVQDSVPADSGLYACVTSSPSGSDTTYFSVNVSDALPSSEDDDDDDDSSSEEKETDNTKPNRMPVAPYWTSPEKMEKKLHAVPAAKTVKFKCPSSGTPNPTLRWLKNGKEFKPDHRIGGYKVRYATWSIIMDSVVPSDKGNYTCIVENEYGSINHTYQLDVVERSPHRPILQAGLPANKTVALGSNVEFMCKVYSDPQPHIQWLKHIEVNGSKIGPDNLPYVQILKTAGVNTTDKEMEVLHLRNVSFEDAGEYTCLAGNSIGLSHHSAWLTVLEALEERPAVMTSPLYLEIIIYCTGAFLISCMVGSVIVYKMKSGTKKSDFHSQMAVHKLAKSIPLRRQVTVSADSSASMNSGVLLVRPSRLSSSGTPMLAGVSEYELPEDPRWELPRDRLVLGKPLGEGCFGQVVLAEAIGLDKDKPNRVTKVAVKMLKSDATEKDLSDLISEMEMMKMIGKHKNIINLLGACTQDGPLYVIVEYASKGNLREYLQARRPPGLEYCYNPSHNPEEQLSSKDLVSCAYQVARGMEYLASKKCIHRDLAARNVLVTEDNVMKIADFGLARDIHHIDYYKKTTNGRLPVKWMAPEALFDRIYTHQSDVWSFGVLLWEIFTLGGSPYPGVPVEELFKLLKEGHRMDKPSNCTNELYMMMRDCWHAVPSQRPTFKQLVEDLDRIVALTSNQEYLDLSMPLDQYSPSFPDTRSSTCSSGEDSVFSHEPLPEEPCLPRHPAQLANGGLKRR
human FGFR1c together with human beta-Klotho (KLB), stably expressed on CHO Flp-In cells (human), P11362, sequence (Q86Z14 whole entry, chain 2 of 2, further chain): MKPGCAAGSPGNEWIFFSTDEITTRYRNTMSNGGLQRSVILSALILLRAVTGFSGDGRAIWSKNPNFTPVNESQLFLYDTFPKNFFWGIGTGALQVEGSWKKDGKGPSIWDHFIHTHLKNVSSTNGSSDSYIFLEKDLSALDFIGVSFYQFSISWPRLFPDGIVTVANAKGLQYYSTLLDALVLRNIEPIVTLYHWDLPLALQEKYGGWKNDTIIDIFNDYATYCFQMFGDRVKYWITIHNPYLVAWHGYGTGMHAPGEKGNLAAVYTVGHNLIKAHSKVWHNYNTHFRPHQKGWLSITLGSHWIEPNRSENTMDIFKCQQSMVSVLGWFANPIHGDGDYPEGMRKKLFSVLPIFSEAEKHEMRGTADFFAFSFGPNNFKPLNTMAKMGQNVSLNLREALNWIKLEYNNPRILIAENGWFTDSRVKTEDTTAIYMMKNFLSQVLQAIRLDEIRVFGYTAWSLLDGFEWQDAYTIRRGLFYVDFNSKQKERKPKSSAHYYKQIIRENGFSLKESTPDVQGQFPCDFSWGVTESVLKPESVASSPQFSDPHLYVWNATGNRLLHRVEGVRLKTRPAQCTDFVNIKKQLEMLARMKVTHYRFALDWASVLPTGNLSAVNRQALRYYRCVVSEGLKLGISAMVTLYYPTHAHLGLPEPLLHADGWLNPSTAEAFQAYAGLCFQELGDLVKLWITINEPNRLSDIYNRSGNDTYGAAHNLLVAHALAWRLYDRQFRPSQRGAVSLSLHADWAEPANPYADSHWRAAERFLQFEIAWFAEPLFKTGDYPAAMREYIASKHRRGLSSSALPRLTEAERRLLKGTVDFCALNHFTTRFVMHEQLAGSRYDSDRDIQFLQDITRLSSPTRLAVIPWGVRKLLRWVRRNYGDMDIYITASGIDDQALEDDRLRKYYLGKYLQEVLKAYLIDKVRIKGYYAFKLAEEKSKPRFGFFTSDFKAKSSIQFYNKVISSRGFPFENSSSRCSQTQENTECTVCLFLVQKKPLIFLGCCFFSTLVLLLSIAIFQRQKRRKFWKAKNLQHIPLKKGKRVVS

B1: FGF21 G202-R203 deleted (SEQ ID NO: 157), Q9NSA1 29-209 (ligand)
chain: GHPIPDSSPLLQFGGQVRQRYLYTDDAQQTEAHLEIREDGTVGGAADQSPESLLQLKALKPGVIQILGVKTSRFLCQRPDGALYGSLHFDPEACSFRELLLEDGYNVYQSEAHGLPLHLPGNKSPHRDPAPRGPARFLPLPGLPPAPPEPPGILAPQPPDVGSSDPLSMVGPSQSPSYAS
As to B1, the pERK ICW EC50 stood at 1.63 nmol/L.

B2: FGF21 A162Y (SEQ ID NO: 151), Q9NSA1 29-209 (ligand)
chain: GHPIPDSSPLLQFGGQVRQRYLYTDDAQQTEAHLEIREDGTVGGAADQSPESLLQLKALKPGVIQILGVKTSRFLCQRPDGALYGSLHFDPEACSFRELLLEDGYNVYQSEAHGLPLHLPGNKSPHRDPAPRGPYRFLPLPGLPPAPPEPPGILAPQPPDVGSSDPLSMVGPSQGRSPSYAS
Take B2: the pERK ICW EC50 was 0.08 nmol/L.

B3: FGF21 H153Y, R154K, D155N, P156K, A157G (SEQ ID NO: 134), Q9NSA1 29-209 (ligand)
chain: GHPIPDSSPLLQFGGQVRQRYLYTDDAQQTEAHLEIREDGTVGGAADQSPESLLQLKALKPGVIQILGVKTSRFLCQRPDGALYGSLHFDPEACSFRELLLEDGYNVYQSEAHGLPLHLPGNKSPYKNKGPRGPARFLPLPGLPPAPPEPPGILAPQPPDVGSSDPLSMVGPSQGRSPSYAS
For B3, the pERK ICW EC50 came out at 0.05 nmol/L.

B4: FGF21 P152A, H153K, R154K, D155E, P156A, A157S, R159Q (SEQ ID NO: 133), Q9NSA1 29-209 (ligand)
chain: GHPIPDSSPLLQFGGQVRQRYLYTDDAQQTEAHLEIREDGTVGGAADQSPESLLQLKALKPGVIQILGVKTSRFLCQRPDGALYGSLHFDPEACSFRELLLEDGYNVYQSEAHGLPLHLPGNKSAKKEASPQGPARFLPLPGLPPAPPEPPGILAPQPPDVGSSDPLSMVGPSQGRSPSYAS
B4 had a pERK ICW EC50 of 0.24 nmol/L.

B5: FGF21 D155Y (SEQ ID NO: 126), Q9NSA1 29-209 (ligand)
chain: GHPIPDSSPLLQFGGQVRQRYLYTDDAQQTEAHLEIREDGTVGGAADQSPESLLQLKALKPGVIQILGVKTSRFLCQRPDGALYGSLHFDPEACSFRELLLEDGYNVYQSEAHGLPLHLPGNKSPHRYPAPRGPARFLPLPGLPPAPPEPPGILAPQPPDVGSSDPLSMVGPSQGRSPSYAS
In turn, B5 returned a pERK ICW EC50 of 0.07 nmol/L.

B6: FGF21 R154Q, D155K (SEQ ID NO: 131), Q9NSA1 29-209 (ligand)
chain: GHPIPDSSPLLQFGGQVRQRYLYTDDAQQTEAHLEIREDGTVGGAADQSPESLLQLKALKPGVIQILGVKTSRFLCQRPDGALYGSLHFDPEACSFRELLLEDGYNVYQSEAHGLPLHLPGNKSPHQKPAPRGPARFLPLPGLPPAPPEPPGILAPQPPDVGSSDPLSMVGPSQGRSPSYAS
On to B6, for which the pERK ICW EC50 was determined as 0.39 nmol/L.

B7: FGF21 S200M (SEQ ID NO: 153), Q9NSA1 29-209 (ligand)
chain: GHPIPDSSPLLQFGGQVRQRYLYTDDAQQTEAHLEIREDGTVGGAADQSPESLLQLKALKPGVIQILGVKTSRFLCQRPDGALYGSLHFDPEACSFRELLLEDGYNVYQSEAHGLPLHLPGNKSPHRDPAPRGPARFLPLPGLPPAPPEPPGILAPQPPDVGSSDPLSMVGPMQGRSPSYAS
B7: the pERK ICW EC50 turned out to be 0.17 nmol/L.

B8: FGF21 D155L (SEQ ID NO: 124), Q9NSA1 29-209 (ligand)
chain: GHPIPDSSPLLQFGGQVRQRYLYTDDAQQTEAHLEIREDGTVGGAADQSPESLLQLKALKPGVIQILGVKTSRFLCQRPDGALYGSLHFDPEACSFRELLLEDGYNVYQSEAHGLPLHLPGNKSPHRLPAPRGPARFLPLPGLPPAPPEPPGILAPQPPDVGSSDPLSMVGPSQGRSPSYAS
Regarding B8, the pERK ICW EC50 was 0.11 nmol/L.

B9: FGF21 D155K (SEQ ID NO: 125), Q9NSA1 29-209 (ligand)
chain: GHPIPDSSPLLQFGGQVRQRYLYTDDAQQTEAHLEIREDGTVGGAADQSPESLLQLKALKPGVIQILGVKTSRFLCQRPDGALYGSLHFDPEACSFRELLLEDGYNVYQSEAHGLPLHLPGNKSPHRKPAPRGPARFLPLPGLPPAPPEPPGILAPQPPDVGSSDPLSMVGPSQGRSPSYAS
In turn, B9 gave a pERK ICW EC50 of 0.06 nmol/L.

B10: FGF21 K150H (SEQ ID NO: 139), Q9NSA1 29-209 (ligand)
chain: GHPIPDSSPLLQFGGQVRQRYLYTDDAQQTEAHLEIREDGTVGGAADQSPESLLQLKALKPGVIQILGVKTSRFLCQRPDGALYGSLHFDPEACSFRELLLEDGYNVYQSEAHGLPLHLPGNHSPHRDPAPRGPARFLPLPGLPPAPPEPPGILAPQPPDVGSSDPLSMVGPSQGRSPSYAS
B10 came in with a pERK ICW EC50 of 0.15 nmol/L.

B11: FGF21 H153Q, R154Q, D155N, A157V, R159K (SEQ ID NO: 132), Q9NSA1 29-209 (ligand)
chain: GHPIPDSSPLLQFGGQVRQRYLYTDDAQQTEAHLEIREDGTVGGAADQSPESLLQLKALKPGVIQILGVKTSRFLCQRPDGALYGSLHFDPEACSFRELLLEDGYNVYQSEAHGLPLHLPGNKSPQQNPVPKGPARFLPLPGLPPAPPEPPGILAPQPPDVGSSDPLSMVGPSQGRSPSYAS
B11 registered a pERK ICW EC50 of 0.23 nmol/L.

B12: G-FGF21 (SEQ ID NO: 3), without N-terminal tag, Q9NSA1 29-209 (ligand)
chain: GHPIPDSSPLLQFGGQVRQRYLYTDDAQQTEAHLEIREDGTVGGAADQSPESLLQLKALKPGVIQILGVKTSRFLCQRPDGALYGSLHFDPEACSFRELLLEDGYNVYQSEAHGLPLHLPGNKSPHRDPAPRGPARFLPLPGLPPAPPEPPGILAPQPPDVGSSDPLSMVGPSQGRSPSYAS
B12 had a pERK ICW EC50 of 0.24 nmol/L.

B13: FGF21 R154Q, D155L (SEQ ID NO: 130), Q9NSA1 29-209 (ligand)
chain: GHPIPDSSPLLQFGGQVRQRYLYTDDAQQTEAHLEIREDGTVGGAADQSPESLLQLKALKPGVIQILGVKTSRFLCQRPDGALYGSLHFDPEACSFRELLLEDGYNVYQSEAHGLPLHLPGNKSPHQLPAPRGPARFLPLPGLPPAPPEPPGILAPQPPDVGSSDPLSMVGPSQGRSPSYAS
On to B13, for which the pERK ICW EC50 was determined as 0.14 nmol/L.

B14: FGF21 G202T (SEQ ID NO: 154), Q9NSA1 29-209 (ligand)
chain: GHPIPDSSPLLQFGGQVRQRYLYTDDAQQTEAHLEIREDGTVGGAADQSPESLLQLKALKPGVIQILGVKTSRFLCQRPDGALYGSLHFDPEACSFRELLLEDGYNVYQSEAHGLPLHLPGNKSPHRDPAPRGPARFLPLPGLPPAPPEPPGILAPQPPDVGSSDPLSMVGPSQTRSPSYAS
The molecule B14 showed a pERK ICW EC50 of 0.01 nmol/L.

B15: G-FGF21 with a leucine in position 174 (SEQ ID NO: 174), Q9NSA1 29-209 (ligand)
chain: GHPIPDSSPLLQFGGQVRQRYLYTDDAQQTEAHLEIREDGTVGGAADQSPESLLQLKALKPGVIQILGVKTSRFLCQRPDGALYGSLHFDPEACSFRELLLEDGYNVYQSEAHGLPLHLPGNKSPHRDPAPRGPARFLPLPGLPPALPEPPGILAPQPPDVGSSDPLSMVGPSQGRSPSYAS
B15 displayed an In-Cell Western EC50 of 0.21 nM.

B16: FGF21 D155E (SEQ ID NO: 128), Q9NSA1 29-209 (ligand)
chain: GHPIPDSSPLLQFGGQVRQRYLYTDDAQQTEAHLEIREDGTVGGAADQSPESLLQLKALKPGVIQILGVKTSRFLCQRPDGALYGSLHFDPEACSFRELLLEDGYNVYQSEAHGLPLHLPGNKSPHREPAPRGPARFLPLPGLPPAPPEPPGILAPQPPDVGSSDPLSMVGPSQGRSPSYAS
For B16, the pERK ICW EC50 stood at 0.13 nmol/L.

B17: FGF21 D155N (SEQ ID NO: 129), Q9NSA1 29-209 (ligand)
chain: GHPIPDSSPLLQFGGQVRQRYLYTDDAQQTEAHLEIREDGTVGGAADQSPESLLQLKALKPGVIQILGVKTSRFLCQRPDGALYGSLHFDPEACSFRELLLEDGYNVYQSEAHGLPLHLPGNKSPHRNPAPRGPARFLPLPGLPPAPPEPPGILAPQPPDVGSSDPLSMVGPSQGRSPSYAS
In the case of B17, the pERK ICW EC50 came out at 0.06 nmol/L.

B18: FGF21 D155P (SEQ ID NO: 127), Q9NSA1 29-209 (ligand)
chain: GHPIPDSSPLLQFGGQVRQRYLYTDDAQQTEAHLEIREDGTVGGAADQSPESLLQLKALKPGVIQILGVKTSRFLCQRPDGALYGSLHFDPEACSFRELLLEDGYNVYQSEAHGLPLHLPGNKSPHRPPAPRGPARFLPLPGLPPAPPEPPGILAPQPPDVGSSDPLSMVGPSQGRSPSYAS
B18 came in with a pERK ICW EC50 of 0.08 nmol/L.

B19: FGF21 R159H (SEQ ID NO: 152), Q9NSA1 29-209 (ligand)
chain: GHPIPDSSPLLQFGGQVRQRYLYTDDAQQTEAHLEIREDGTVGGAADQSPESLLQLKALKPGVIQILGVKTSRFLCQRPDGALYGSLHFDPEACSFRELLLEDGYNVYQSEAHGLPLHLPGNKSPHRDPAPHGPARFLPLPGLPPAPPEPPGILAPQPPDVGSSDPLSMVGPSQGRSPSYAS
B19: the pERK ICW EC50 is 0.17 nmol/L.

B20: FGF21 N149-R163 deleted and replaced by GSGS (SEQ ID NO: 136), Q9NSA1 29-209 (ligand)
chain: GHPIPDSSPLLQFGGQVRQRYLYTDDAQQTEAHLEIREDGTVGGAADQSPESLLQLKALKPGVIQILGVKTSRFLCQRPDGALYGSLHFDPEACSFRELLLEDGYNVYQSEAHGLPLHLPGGSGSFLPLPGLPPAPPEPPGILAPQPPDVGSSDPLSMVGPSQGRSPSYAS
Molecule B20 returned a pERK ICW EC50 of 3.69 nmol/L.

B21: FGF21, human (SEQ ID NO: 2), without N-terminal tag, Q9NSA1 29-209 (ligand)
chain: HPIPDSSPLLQFGGQVRQRYLYTDDAQQTEAHLEIREDGTVGGAADQSPESLLQLKALKPGVIQILGVKTSRFLCQRPDGALYGSLHFDPEACSFRELLLEDGYNVYQSEAHGLPLHLPGNKSPHRDPAPRGPARFLPLPGLPPAPPEPPGILAPQPPDVGSSDPLSMVGPSQGRSPSYAS
B21 came in with a pERK ICW EC50 of 0.17 nmol/L, a pFGFR ICW EC50 of 4.49 nmol/L and a pFGFR ICW Emax of 146%.

B22: FGF21 N149-A162 deleted and replaced by GSHSG (SEQ ID NO: 137), Q9NSA1 29-209 (ligand)
chain: GHPIPDSSPLLQFGGQVRQRYLYTDDAQQTEAHLEIREDGTVGGAADQSPESLLQLKALKPGVIQILGVKTSRFLCQRPDGALYGSLHFDPEACSFRELLLEDGYNVYQSEAHGLPLHLPGGSHSGRFLPLPGLPPAPPEPPGILAPQPPDVGSSDPLSMVGPSQGRSPSYAS
B22 came in with a pERK ICW EC50 of 0.57 nmol/L.

B23: FGF21 R159-R163 deleted and replaced by HE (SEQ ID NO: 150), Q9NSA1 29-209 (ligand)
chain: GHPIPDSSPLLQFGGQVRQRYLYTDDAQQTEAHLEIREDGTVGGAADQSPESLLQLKALKPGVIQILGVKTSRFLCQRPDGALYGSLHFDPEACSFRELLLEDGYNVYQSEAHGLPLHLPGNKSPHRDPAPHEFLPLPGLPPAPPEPPGILAPQPPDVGSSDPLSMVGPSQGRSPSYAS
The molecule B23 came in with a pERK ICW EC50 of 0.98 nmol/L.

B24: FGF21 P152-H153 deleted (SEQ ID NO: 135), Q9NSA1 29-209 (ligand)
chain: GHPIPDSSPLLQFGGQVRQRYLYTDDAQQTEAHLEIREDGTVGGAADQSPESLLQLKALKPGVIQILGVKTSRFLCQRPDGALYGSLHFDPEACSFRELLLEDGYNVYQSEAHGLPLHLPGNKSRDPAPRGPARFLPLPGLPPAPPEPPGILAPQPPDVGSSDPLSMVGPSQGRSPSYAS
With B24, the pERK ICW EC50 worked out at 0.21 nmol/L.

B25: FGF21 N149-A162 deleted and replaced by GSHSGS (SEQ ID NO: 138), Q9NSA1 29-209 (ligand)
chain: GHPIPDSSPLLQFGGQVRQRYLYTDDAQQTEAHLEIREDGTVGGAADQSPESLLQLKALKPGVIQILGVKTSRFLCQRPDGALYGSLHFDPEACSFRELLLEDGYNVYQSEAHGLPLHLPGGSHSGSRFLPLPGLPPAPPEPPGILAPQPPDVGSSDPLSMVGPSQGRSPSYAS
B25 displayed a pERK ICW EC50 of 0.19 nmol/L.
